Test results: the supplement of paper PMC9112550, “Optimization of the antimicrobial peptide Bac7 by deep mutational scanning” (BMC Biology, 2022)

These sequences were tested on Escherichia coli TOP10 (assay: shrunken log2 fold change of peptide-encoding DNA abundance (4.5 h post-induction vs induction); higher = less antimicrobial activity (less host growth inhibition)). Details: time post-induction: 4.5 h; library: site-saturation at positions 5, 18, 19, 20.
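Note: peptides expressed intracellularly from a pBAD plasmid library in pooled LB shake-flask culture, induced with 0.3% L-arabinose, DNA abundance read by NGS, three biological replicates, DESeq2 with apeglm shrinkage.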

Row | Sequence | shrunken log2 fold change
1 | RRIRSRPPRLPRPRPRPVCAPRP | 0.386
2 | RRIRWRPPRLPRPRPRPSNTPRP | -0.355
3 | RRIRARPPRLPRPRPRPVEGPRP | 0.329
4 | RRIRERPPRLPRPRPRPLQGPRP | -0.179
5 | RRIRQRPPRLPRPRPRPRIYPRP | -0.159
6 | RRIRNRPPRLPRPRPRPIFRPRP | -0.0067
7 | RRIRQRPPRLPRPRPRPHRVPRP | -0.00151
8 | RRIRARPPRLPRPRPRPTENPRP | 0.381
9 | RRIRSRPPRLPRPRPRPWMSPRP | 0.132
10 | RRIRWRPPRLPRPRPRPYMAPRP | -0.247
11 | RRIRLRPPRLPRPRPRPYNFPRP | -0.0404
12 | RRIRCRPPRLPRPRPRPGIDPRP | 0.0673
13 | RRIRYRPPRLPRPRPRPWLAPRP | 0.00503
14 | RRIRHRPPRLPRPRPRPYMTPRP | -0.313
15 | RRIRIRPPRLPRPRPRPGKCPRP | -0.215
16 | RRIRDRPPRLPRPRPRPPYMPRP | -0.464
17 | RRIRKRPPRLPRPRPRPKLGPRP | 0.0679
18 | RRIRSRPPRLPRPRPRPQYMPRP | -0.695
19 | RRIRCRPPRLPRPRPRPINMPRP | -1.09
20 | RRIRGRPPRLPRPRPRPKAQPRP | 1.27
21 | RRIRCRPPRLPRPRPRPEIRPRP | -0.123
22 | RRIRKRPPRLPRPRPRPVHIPRP | -0.021
23 | RRIRYRPPRLPRPRPRPWSFPRP | -0.522
24 | RRIRVRPPRLPRPRPRPTSLPRP | -0.262
25 | RRIRKRPPRLPRPRPRPAWPPRP | 0.675

Row | Sequence | shrunken log2 fold change
26 | RRIRTRPPRLPRPRPRPQCSPRP | 0.0299
27 | RRIRGRPPRLPRPRPRPFKGPRP | -0.00192
28 | RRIRERPPRLPRPRPRPWLWPRP | 0.239
29 | RRIRVRPPRLPRPRPRPVDPPRP | 0.22
30 | RRIRERPPRLPRPRPRPMRQPRP | 0.575
31 | RRIRPRPPRLPRPRPRPWWMPRP | 0.0483
32 | RRIRPRPPRLPRPRPRPWVTPRP | -0.00388
33 | RRIRKRPPRLPRPRPRPAQIPRP | 0.342
34 | RRIRARPPRLPRPRPRPRAWPRP | 0.699
35 | RRIRERPPRLPRPRPRPDCKPRP | 0.0476
36 | RRIRARPPRLPRPRPRPHAFPRP | 0.231
37 | RRIRTRPPRLPRPRPRPVGCPRP | 0.304
38 | RRIRERPPRLPRPRPRPGRNPRP | -0.237
39 | RRIRDRPPRLPRPRPRPFLLPRP | 0.0901
40 | RRIRRRPPRLPRPRPRPGVWPRP | 0.47
41 | RRIRDRPPRLPRPRPRPMVSPRP | -0.00166
42 | RRIRRRPPRLPRPRPRPIVTPRP | 0.0446
43 | RRIRDRPPRLPRPRPRPRGAPRP | 0.772
44 | RRIRGRPPRLPRPRPRPKYDPRP | 1.62
45 | RRIRYRPPRLPRPRPRPHCAPRP | -0.544
46 | RRIRNRPPRLPRPRPRPMFMPRP | -0.424
47 | RRIRNRPPRLPRPRPRPVSHPRP | -0.0709
48 | RRIRIRPPRLPRPRPRPPLWPRP | 0.504
49 | RRIRWRPPRLPRPRPRPETHPRP | 0.756
50 | RRIRRRPPRLPRPRPRPYMIPRP | -0.263

Row | Sequence | shrunken log2 fold change
51 | RRIRFRPPRLPRPRPRPMNQPRP | -0.528
52 | RRIRFRPPRLPRPRPRPEASPRP | 0.0218
53 | RRIRQRPPRLPRPRPRPMGNPRP | -0.136
54 | RRIRGRPPRLPRPRPRPSWDPRP | 0.496
55 | RRIRWRPPRLPRPRPRPDTVPRP | -0.0246
56 | RRIRTRPPRLPRPRPRPPAFPRP | -0.216
57 | RRIRQRPPRLPRPRPRPFNDPRP | 0.0753
58 | RRIRNRPPRLPRPRPRPNMEPRP | -0.0369
59 | RRIRIRPPRLPRPRPRPITEPRP | -1.09
60 | RRIRKRPPRLPRPRPRPHVWPRP | 0.82
61 | RRIRYRPPRLPRPRPRPCSDPRP | -0.187
62 | RRIRCRPPRLPRPRPRPVDLPRP | -0.348
63 | RRIRSRPPRLPRPRPRPFMPPRP | -0.149
64 | RRIRFRPPRLPRPRPRPSNPPRP | -0.674
65 | RRIRYRPPRLPRPRPRPHRNPRP | -0.745
66 | RRIRQRPPRLPRPRPRPNCSPRP | -0.0334
67 | RRIRNRPPRLPRPRPRPFIKPRP | -0.473
68 | RRIRYRPPRLPRPRPRPQDCPRP | -0.363
69 | RRIRYRPPRLPRPRPRPWLRPRP | 0.0188
70 | RRIRLRPPRLPRPRPRPYIGPRP | -0.129
71 | RRIRARPPRLPRPRPRPMTSPRP | 0.237
72 | RRIRYRPPRLPRPRPRPSRIPRP | 0.0535
73 | RRIRSRPPRLPRPRPRPLLTPRP | 0.085
74 | RRIRVRPPRLPRPRPRPITIPRP | -0.0236
75 | RRIRERPPRLPRPRPRPRQNPRP | 0.177

Row | Sequence | shrunken log2 fold change
76 | RRIRPRPPRLPRPRPRPFWEPRP | -0.0196
77 | RRIRNRPPRLPRPRPRPPMPPRP | 0.0312
78 | RRIRIRPPRLPRPRPRPDRFPRP | 0.0544
79 | RRIRRRPPRLPRPRPRPDHLPRP | -0.0237
80 | RRIRRRPPRLPRPRPRPTSYPRP | -0.0452
81 | RRIRYRPPRLPRPRPRPYEQPRP | -0.0134
82 | RRIRVRPPRLPRPRPRPFNKPRP | 0.791
83 | RRIRKRPPRLPRPRPRPHRIPRP | 0.00291
84 | RRIRDRPPRLPRPRPRPYHSPRP | -0.198
85 | RRIRIRPPRLPRPRPRPWWGPRP | 0.0378
86 | RRIRIRPPRLPRPRPRPRMDPRP | -0.389
87 | RRIRRRPPRLPRPRPRPKPIPRP | 0.357
88 | RRIRWRPPRLPRPRPRPQGTPRP | 0.104
89 | RRIRWRPPRLPRPRPRPMPFPRP | -0.133
90 | RRIRMRPPRLPRPRPRPLPSPRP | 0.942
91 | RRIRARPPRLPRPRPRPVNCPRP | 1.04
92 | RRIRYRPPRLPRPRPRPYMLPRP | -1.3
93 | RRIRWRPPRLPRPRPRPGKNPRP | 0.13
94 | RRIRWRPPRLPRPRPRPGCVPRP | 0.607
95 | RRIRARPPRLPRPRPRPGLMPRP | 0.524
96 | RRIRYRPPRLPRPRPRPWAQPRP | -0.37
97 | RRIRNRPPRLPRPRPRPMNTPRP | -0.421
98 | RRIRGRPPRLPRPRPRPKQEPRP | 0.0916
99 | RRIRCRPPRLPRPRPRPTKRPRP | 0.0767
100 | RRIRVRPPRLPRPRPRPYKQPRP | -0.00648

Row | Sequence | shrunken log2 fold change
101 | RRIRFRPPRLPRPRPRPCSNPRP | -0.0316
102 | RRIRRRPPRLPRPRPRPYSDPRP | 0.186
103 | RRIRGRPPRLPRPRPRPVGMPRP | 0.907
104 | RRIRNRPPRLPRPRPRPRVVPRP | 0.078
105 | RRIRERPPRLPRPRPRPWMNPRP | -0.0137
106 | RRIRTRPPRLPRPRPRPSWHPRP | -0.23
107 | RRIRWRPPRLPRPRPRPENKPRP | -0.13
108 | RRIRERPPRLPRPRPRPGYNPRP | -0.0871
109 | RRIRVRPPRLPRPRPRPENPPRP | 0.0444
110 | RRIRLRPPRLPRPRPRPMWRPRP | 0.194
111 | RRIRIRPPRLPRPRPRPPSPPRP | 0.168
112 | RRIRLRPPRLPRPRPRPGYTPRP | -0.349
113 | RRIRLRPPRLPRPRPRPSTFPRP | -0.33
114 | RRIRDRPPRLPRPRPRPHMLPRP | -0.144
115 | RRIRSRPPRLPRPRPRPVMMPRP | -0.0812
116 | RRIRKRPPRLPRPRPRPQDSPRP | -0.017
117 | RRIRFRPPRLPRPRPRPWWYPRP | -0.238
118 | RRIRYRPPRLPRPRPRPVTVPRP | -0.302
119 | RRIRCRPPRLPRPRPRPEMLPRP | -0.077
120 | RRIRNRPPRLPRPRPRPSQHPRP | -0.0437
121 | RRIRHRPPRLPRPRPRPAKPPRP | 0.533
122 | RRIRVRPPRLPRPRPRPTMYPRP | -0.245
123 | RRIRHRPPRLPRPRPRPRAVPRP | 0.518
124 | RRIRERPPRLPRPRPRPVWMPRP | -0.0846
125 | RRIRLRPPRLPRPRPRPVHNPRP | -0.281

Row | Sequence | shrunken log2 fold change
126 | RRIRYRPPRLPRPRPRPDELPRP | 0.0702
127 | RRIRYRPPRLPRPRPRPEHLPRP | -0.357
128 | RRIRLRPPRLPRPRPRPECRPRP | 2.41
129 | RRIRIRPPRLPRPRPRPEPPPRP | 0.254
130 | RRIRLRPPRLPRPRPRPWPTPRP | 0.0538
131 | RRIRKRPPRLPRPRPRPYNDPRP | -0.00691
132 | RRIRFRPPRLPRPRPRPHGCPRP | -0.064
133 | RRIRDRPPRLPRPRPRPCFGPRP | -0.112
134 | RRIRIRPPRLPRPRPRPGNRPRP | -0.0134
135 | RRIRDRPPRLPRPRPRPYPRPRP | 0.0039
136 | RRIRQRPPRLPRPRPRPIAHPRP | -0.148
137 | RRIRFRPPRLPRPRPRPPVKPRP | -0.00563
138 | RRIRYRPPRLPRPRPRPDLSPRP | -0.025
139 | RRIRQRPPRLPRPRPRPPLRPRP | 0.49
140 | RRIRQRPPRLPRPRPRPAEYPRP | 0.0734
141 | RRIRNRPPRLPRPRPRPFYRPRP | -0.131
142 | RRIRSRPPRLPRPRPRPFHYPRP | -0.429
143 | RRIRWRPPRLPRPRPRPLWAPRP | 0.417
144 | RRIRARPPRLPRPRPRPFWAPRP | 0.218
145 | RRIRGRPPRLPRPRPRPWAAPRP | 0.539
146 | RRIRIRPPRLPRPRPRPYFFPRP | -0.875
147 | RRIRSRPPRLPRPRPRPFKQPRP | -0.468
148 | RRIRGRPPRLPRPRPRPSHIPRP | 0.0558
149 | RRIRNRPPRLPRPRPRPHCLPRP | -0.466
150 | RRIRPRPPRLPRPRPRPLTTPRP | 0.135
